pKd: −log10 of the molar value.
Columns and labels:
[1] = target: intact human Factor IX (human) (UniProt P00740); assay: cell-based or functional assay
[2] = target: Factor IXα (human) (UniProt P00740); assay: ELISA affinity determination (Kim et al.)
[3] = target: intact human Factor IX (human) (UniProt P00740); assay: ELISA affinity determination (Kim et al.)
[4] = target: Factor II (UniProt P00734); assay: affinity chromatography on CLB-FIX D4-Sepharose; 73 ml
[5] = target: Factor X (UniProt P00742); assay: as above
[6] = target: Factor II (UniProt P00734); assay: affinity chromatography on CLB-FIX D4-Sepharose; 440 ml
[7] = target: Factor X (UniProt P00742); assay: as above
[8] = target: Factor IXaβ (human) (UniProt P00740); assay: CLB-FIX D4 affinity chromatography, Factor IXα mixture applied
[9] = target: intact human Factor IX (human) (UniProt P00740); assay: as above
[10] = target: intact human Factor IX (human) (UniProt P00740); assay: CLB-FIX D4 affinity chromatography, purified Factor IX applied
[11] = target: Factor IXaβ (human) (UniProt P00740); assay: CLB-FIX D4 affinity chromatography, Factor IXaβ mixture applied
[12] = target: intact human Factor IX (human) (UniProt P00740); assay: as above
[13] = target: intact human Factor IX (human) (UniProt P00740); assay: affinity chromatography on CLB-FIX D4-Sepharose, clotting activity; 73 ml
[14] = target: intact human Factor IX (human) (UniProt P00740); assay: affinity chromatography on CLB-FIX D4-Sepharose, clotting activity; 440 ml
[15] = target: intact human Factor IX (human) (UniProt P00740); assay: affinity chromatography of prothrombin complex concentrate, elution with 2 M KSCN

Chain of UniProt P00742 (P00742 41-488 limits assumed): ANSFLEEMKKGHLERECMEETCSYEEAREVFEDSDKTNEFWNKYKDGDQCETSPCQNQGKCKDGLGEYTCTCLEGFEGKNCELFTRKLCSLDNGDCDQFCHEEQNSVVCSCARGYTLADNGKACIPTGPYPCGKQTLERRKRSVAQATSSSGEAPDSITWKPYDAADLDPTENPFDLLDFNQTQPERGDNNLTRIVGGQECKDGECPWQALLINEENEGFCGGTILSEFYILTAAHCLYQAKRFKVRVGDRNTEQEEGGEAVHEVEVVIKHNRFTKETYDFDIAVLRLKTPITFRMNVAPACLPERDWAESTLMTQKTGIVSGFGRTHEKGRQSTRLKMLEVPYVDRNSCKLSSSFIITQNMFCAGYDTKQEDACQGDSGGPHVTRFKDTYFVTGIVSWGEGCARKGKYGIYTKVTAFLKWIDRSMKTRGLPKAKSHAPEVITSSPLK

Factor IX clotting activity (one stage coagulation assay), residual activity after incubation with antibody [1]: > 90%
pKd [2]: 9.52
fold alteration of affinity (Factor IXα against intact Factor IX) [2]: > 4 fold
pKd [3]: 8.92
FII in eluate (U/ml) [4]: < 0.008 U/ml
FX in eluate (U/ml) [5]: < 0.003 U/ml
FII in flow through (U/ml) [6]: 49.7 U/ml
FX in flow through (U/ml) [7]: 51 U/ml
FIXaβ eluted [8]: < 0.001 µg
FIXaβ unbound [8]: 7 µg
Intact FIX eluted [9]: 85 µg
Intact FIX eluted [10]: 588 µg
Intact FIX unbound [10]: 23 µg
Protein eluted [10]: 580 µg
Protein unbound [10]: 20 µg
FIXaβ eluted [11]: < 0.001 µg
FIXaβ unbound [11]: 550 µg
Intact FIX eluted [12]: 50 µg
FIX in eluate (U/ml) [13]: 98.7 U/ml
FIX in flow through (U/ml) [14]: 10.4 U/ml
Factor IX activity recovered in the eluate [15]: 67%
Substance: monoclonal antibody CLB-FIX D4

Reference: patent publication USRE38202
